Molecular target: Human recombinant hepatocyte growth factor activator (HGFA) (human) (UniProt Q04756)
Assay: cell-based or functional assay

UniProt Q04756, sequence (Q04756 373-655 limits assumed): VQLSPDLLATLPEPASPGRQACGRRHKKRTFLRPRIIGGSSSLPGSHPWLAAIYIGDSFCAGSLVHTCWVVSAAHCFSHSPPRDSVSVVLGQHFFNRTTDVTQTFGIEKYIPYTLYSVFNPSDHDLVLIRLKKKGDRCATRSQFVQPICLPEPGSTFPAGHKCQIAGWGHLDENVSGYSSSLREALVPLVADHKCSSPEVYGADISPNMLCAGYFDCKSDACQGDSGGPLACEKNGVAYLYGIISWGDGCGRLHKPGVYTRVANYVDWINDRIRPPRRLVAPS

inhibition of HGFA-mediated 125I-proHGF conversion (SDS-PAGE): 1 µM
Substance: Soluble HAI-1B (hepatocyte growth factor activator inhibitor-1B) (from UniProt O43278 36-465)

Reference: patent US20110098449A1
